Assay: label from the status in PepcDB records

Row | Sequence | protein production
1 | MSVKKDWIAPLALLFVSFIWGATFVVVQNAMSFVGPFTFNGIRFLFAGIILLFVQMIFSKKTSKQDIKQSSLAGLTVGFFLCVGYVLQTFGLLYTTSSKAGFLTGLSIVMVPILSFIFLKQKATIFIVIGIAVATAGLYLLTAGDSFQLNIGDILVLGCAVAFAAHILVNGFFSKKISPLLLSTSQVLAVGMFSSICAFLFEDWEKLFSVALWTNASFLFALFLTSLFATSIAFFIQTSAQKHTSPTRVAIIFAMEPVFAALTGVLVANEQLSISAIIGCLCIFLGMVFVELPSKTKKEAQAA | failed
2 | MQTWQQLYSPLGSLGLSALAAVIPIVFFFLALAVFRLKGHVAGSITLALSILVAIFAFQMPADMALAAAGYGFAYGLWPIAWIIVAAVFLYKLTVKSGQFEIIRSSVLSITDDQRLQVLLIGFCFGAFLEGAAGFGAPVAITAALLVGLGFNPLYAAGLCLIANTAPVAFGALGIPIIVAGQVTGIDAFKIGAMTGRQLPLLSLFVPFWLVFMMDGMRGVKETWPAALVAGLSFAVTQYFTSNFIGPELPDITSALASLISLTLFLKIWQPKRTAGAQIAGATSSAAITASAGGFGQPRQTQASPYSLGQIFKAWSPFLILTVLVTIWTLKPFKAMFAAGGSMYGWVFNFAIPHLDQLVIKMAPIVTTPTAIPAVFKLDPISATGTAIFFSALISMLLLKIDFKTGLTTLKETFYELRWPILSIGMVLAFAFVTNYSGMSSTMALVLAATGAAFPFFSPFLGWLGVFLTGSDTSSNALFSSLQATTAHQIGVNDTLLVAANTSGGVTGKMISPQSIAVACAATGLVGKESDLFRFTLKHSLFFATIVGLITLAQAYWFTGMLVH | failed
3 | MNSSPPPANSANGDTTNNGENGQDLNLNFLDKIRLSAKRDAKEDEGEELPTELNTINSAGGFLVVSPDKLSVKYTNTNLHGHDVGVVQANKPAPIKCLTYYFEIFVKDSGIKGQIAIGFTKESFKMRRQPGWEVNSCGYHGDDGYLYRGQGKGEPFGPKFTKDDAVGGGINYASQEFFFTKNGTIVGKIPKDIRGHLFPTVAVHSQNEEVLVNFGKKKFAFDIKGYEASERNKQQLAIEKISIPPNIGYGLVKTYLLHYGYEETLDAFNLATKNTVPPIHIDQENAIDEDDSSYALKQRKNLRQLVRNGEIDTALAELQKLYPQIVQDDKSVVCFLLHCQKFIELVGKLEEGVNYGRLELAKFVGLTGFQDIVEDCFALLAYEKPEESSVWYFLEDSQRELVADAVNAAILSTNPNKKDVQRSCHLQSHLEKLLRQLTVCCLERRSLNGDQGETFRLRHVLNNNR | failed
4 | MAQKKGFKYRFYPTDKQKAVLAKVFGHTRYVWNWALELRTDAYYEEGESLSYTDTAKRLTDLKKEKTWLREVSSVALQQKLRDLDQAFQNFFDGRCGYPNFKSKHDKQAARFASNAFTLHGKKLSVAKVPGSLNVRWSRDLPDEAKPTSVTLTKDPAGRYFVSITSAVPEPDPEPTVTDGDGNQKSVGIDLGIADIVVTSDGWKSGNPRHLENDLYRLRKAQRRLSRKEKNGSDGPSENWKKQKRRVAKIHAEIKDKREDFLHKLSRRVVDENQVIALESLSVKGMQQNRSLARPISDTGWSTLVRMIEYKAKEAGRTVVKIDRWFPSTKRCSECGYVTESKPLSVRSWDCPRCDTTHDRDINAAKNIRTAGLAGAFQKANDSGGHSKTRDAFRIERFGANAHGPVNE | failed
5 | MSTSWRIRIMLTIHAKLVEAMLAQAHKDHPFEICGVIAGPEKSNLPLRLIPMRNAAQSETFFKFDPQEQLQVWREMEARGEEPIVIYHSHTHTPAYPSRTDVQYASQPQSHYVIVPTDPAYGEEIRSFRILDGMVTEERIRMINSYKAEWELSMEAMVALEHHHHHH | not failed
6 | MSRNHLPFSAGELEALPLFRFVPLECIEGILEHSCVVSLERGERFEPAGPLGRTIHLILDGRLALYYDVRERDDTPLHLERGDIVGQSLVSGEPEVPCTLVAAEETRLMILEEDLIWSLAQASHAAACNLLGILLRGRGGSPQESFSGTVRDYALRNQAVVDPLTGFQSRRWLEGILSRQVDRFTANGRPLSLVMIDIDGFRAFNERHGRAGGDRALHDVAKTLRNSLRPGELVARYGGDTFAVLLPETEPSTAWMIADRLRQRLMRTVIDMGDGAMLPPLSISAGVAEATPGIDGPTIADNALAALDRAKAAGGNTVSR | failed
7 | MALDLNDVALFVQVVRSGSFAQAARHLGMPSNTVSRKVQQLEIQLGTRLLHRSTRKLVLTQAGEDFHERCVGAVDGLMDAAEQLVSGREEPGGRLRIAAMADFFDFFSMEWVADFLAEYPRVQLEFVLSDERADLIADRLDIAFRGGPLQDSGYVGRQLIEEGHDTMVASPAYIAAHGMPDSLQSLHGHYCVSTAHPGGSTVWRLLGPDAKMHEVQMASRFNANTAQALRKATLAGLGIALLPATLIRSDLRDGRLVPVLTQYQRTSHGLHVLYPSRQHLPPAVSAFIALVMEKLRDKAFAAQ | failed
8 | MEPIMRNPEDALLDSWHQNAQAWIDAVRHGAIESRRQVTDQAILLAILGRQPERVLDLGCGEGWLLRALADRGIEAVGVDGDRTLVDAARAAGAGEVHLASYAQLAEAKVPVGKDYDLICANFALLHQDIIELLSAMRTLLVPGGALVIQTLHPWSVADGDYQDGWREESFAGFAGDWQPMPWYFRTLASWLNALDMAGLRLVSLQEPQHPQSAVPQSLLMVAERH | failed
9 | MAGGTKRLPRAVREQQMLDAAVDVFSDRGFHETSMDAIAAKAEISKPMLYLYYGSKDELFAACIQREGLRFVEALAPAGDPGLSPREQLRRALEGFLGFVGKHRKSWMVLYRQAMGQQAFVGSVQSSRDRLIELTAHLLESSTKDPEPGQDFELIAIALVGAGEAVADRVAGGEIEVDAAADLLESLAWRGLAGKKKPE | not failed
10 | MSLHPVSISLSSYGADLVRSRGQASFLPLLAMAGAQRVELREELFAGPPDTEALTAAIQLQGLECVFSSPLELWREDGQLNPELEPTLRRAEACGAGWLKVSLGLLPEQPDLAALGRRLARHGLQLLVENDQTPQGGRIEVLERFFRLAERQQLDLAMTFDIGNWRWQEQAADEAALRLGRYVGYVHCKAVIRNRDGKLVAVPPSAADLQYWQRLLQHFPEGVARAIEYPLQGDDLLSLSRRHIAALARLGQPQEERQHG | not failed
11 | MTDWQQALDRHVGVGVRTTRDLIRLIQPEDWDKRPISGKRSVYEVAVHLAVLLEADLRIATGATADEMAQFYAVPVLPEQLVDRLDQSWQYYQDRLMADFSTETTYWGVTDSTTGWLLEAAVHLYHHRSQLLDYLNLLGYDIKLDLFE | not failed
12 | MKKAVVVFSGGQDSTTCLVQALKEFDEVHAITFDYGQRHKLEIEVAQKIAKDLGVKAHKVMDVGLLNELAISSLTRDDIPVSHELQENGLPNSFVPGRNILFLTLAGIYAYQIGADTVITGVCETDFSGYPDCRDDFVKSMNTALVKGMDRALTIKTPLMWLNKAETWALADQYNALQLVRENTLTCYNGIIGDGCGDCPSCDLRKAGLDEYLNNKDAVMKSLVQKQESEGL | failed
13 | MDIFLVIGIITGLLAVVVGMIVKGANVAVLLNPAAAIIIIVGTSAAVMNSFPKNEFTNIPKVFKSLMRGKSKEDPVEIINQIVDMAQETRKNGLLSLEGKIHSIDNEFLKTGLEMVVDGVDPQHIAEVLEMEIESTEERHRGGALIFTTAGGAAPTLGVLGAVVGLIGALGNLNDTEKLGHMIAGAFVATLYGIFFGYVICHPFASRLKRKSLEEINVMRIITEGILDIQSGNNPKSIEKKLIGTLSPKQRQSIQSKGE | failed
14 | IQVFVKNPDGGSYAYAINPNSFILGLKQQIEDQQGLPKKQQQLEFQGQVLQDWLGLGIYGIQDSDTLILSKKKG | not failed
15 | MAVTRRLLMAVVGLFSLLVYFTAAYVGYLLLLPVWDSRPSPLMAALFVLGTAIALGVVNYWAATAQLKRSLNAVELPRARAPEAYHRLDALVDQMNVETPTLLLAELPVPNAFAIGGGTGTIVVDRRLFRLLSAAEFEGLLAHELAHLETRDALVQTVAYSFVQTLVGLIGLALFPIVVLTGGIARSLALLRGDPSSWSRSWLGRAQRYSLQVVAGLGFAVTLLLLGYSRRRELAADDRAVEITGNPVGLARALAKIEQASTPDPGLLRQVYVHSEADNELSRLLSTHPPIDERMQRLQDRAQYGNFTKSSERPSSRR | failed
16 | MASSALCFFLMSDLFEPPPDFPARSALRRDCTACGACCSAPDIHALGKPLGVPCRFLGAENTQGACLCGIYLERPAVCRSYAPDWVCGEVAPLPTLEARIRRFLEIYGLDPVTGLEHHHHHH | failed
17 | MQAMTERLEAMLAQGTDNMLLRFTLGKTYAEHEQFDAALPHLRAALDFDPTYSVAWKWLGKTLQGQGDRAGARQAWESGLAAAQSRGDQQVVKELQVFLRRLAREDALEHHHHHH | not failed
18 | MIIPGIAAAETCPDGYKNVSVCKAEKMVEKEDVFLLDVRTPAEFNKTHIEGTILIPVKNVPAQDPVELSSDELLEVRINEVPADEKILVYCKSGARSAAACSLLVSNGYRKVYNMRGGIDCWLARGCTVDVNADKADELLGTGEFFLLDVRTPAEFNAGYIEGAILIPLKNVPKEDPVELPPEKLLAQCLCEIPENKPILVYCKSGTRSDAARDLLVDSGYRHVYNLEGGILTWKAEGYPTVCPAI | failed
19 | MSDALSAIPAAVHRNLSDKLYEKRKNAALELENIVKNLTSSGDHDKISKVIEMLIKEFAKSPQANHRKGGLIGLAAVTVGLSTEAAQYLEQIVPPVINSFSDQDSRVRYYACEALYNIAKVVRGDFIIFFNKIFDALCKLSADSDANVQSAAHLLDRLVKDIVTESDQFSIEEFIPLLKERMNVLNPYVRQFLVGWITVLDSVPDIDMLGFLPDFLDGLFNMLSDSSHEIRQQADSALSEFLQEIKNSPSVDYGRMAEILVQRAASPDEFTRLTAITWINEFVKLGGDQLVRYYADILGAILPCISDKEEKIRVVARETNEELRSIHVEPSDGFDVGAILSVARRQLSSEFEATRIEALNWISTLLNKHRTEVLCFLNDIFDTLLKALSDSSDDVVLLVLEVHAGVAKDPQHFRQLIVFLVHNFRADNSLLERRGALIVRRMCVLLDAERVYRELSTILEGEDNLDFASTMVQALNLILLTSPELSKLRELLKGSLVNREGKELFVALYTSWCHSPMAIISLCLLAQAYQHASVVIQSLVEEDINVKFLVQLDKLIRLLETPIFTYLRLQLLEPGRYTWLLKTLYGLLMLLPQQSAAFKILRTRLKTVPTYSFSTGNQIGRATSGVPFSQYKHQNEDGDLEDDNINSSHQGINFAVRLQQFENVQNLHRGQARTRVNYSYHSSSSSTSKEVRRSEEQQQQQQQQQQQQQQQQRPPPSSTSSSVADNNRPPSRTSRKGPGQLQL | not failed
20 | MLVRTLSALECTKVLTANRVGRLACAKDGQPYVVPLYYAYSDAHLYAFSMPGKKIEWMRANPRVSVQVDEHGQGRGWKSVVVDGRYEELPDLIGHKLQRDHAWSVLSKHTDWWEPGALKPVTPPTADSAPHVFFRILIEQVSGREASE | not failed
21 | MLQVPKLTIIMPVYNTAQYLPRAFDALLKQIDKSFKLIVVDDGSTDNSVEVAQNYAYRFPYFKLIKKKNGGPSDARNVGMQYIDTPYVTFHDGDDWVDPGYTSFFIRAFEEHPDVNLVSCGYWMDYPDKKSRVVGRPEGGFLTRGETYLKLTNVFGSPMKGYSWNKAYKTAIIKKFHLQFDRDISLLEDQIFNVKYISVAKGVYYTQRPYYHYWQRKGSIIHQPNVKKVADNFRGNYRVWRRIIKTMLKDHEDEKMRKKLDRSPLRDSDVQ | failed
22 | MMLNRKDADYYLGKEIMLARIRRGALIPAKVNEEHFWLLIGISSIHSEKIIQALRDYLVFGVSRKDVCERYEVNNGYFSTSLNRLSRISQAAAQMVVYYSLEHHHHHH | not failed
23 | DAALCAFDADGVVTHWNREAERILGWTAAEAVGRRGFAGWAVRTADAEDVEARLMTAMQAPGRQVHEFALLTKDGGRVLVRTQSAAVHGPDGKPAGVYCAFSEVH | not failed

From a protein production outcome set (Wang et al. 2014)
